Assay results published in PMC9605926, “Safety of [^177Lu]Lu-NeoB treatment: a preclinical study characterizing absorbed dose and acute, early, and late organ toxicity” (European Journal of Nuclear Medicine and Molecular Imaging, 2022).

Experiments:
pancreas = details: 100 days after once weekly for 3 consecutive weeks 37 MBq/400 pmol; cited from earlier work
Description: As mentioned above, the GRPR-expressing pancreas is often named as a potential dose-limiting organ for GRPR-targeting radionuclide therapy. Pancreatitis can be diagnosed by an increase in serum lipase and amylase levels, neither of which were consistently found in this study. Furthermore, no histopathological signs of continuous or severe pancreatic toxicity was observed.

[1] = Dosimetry: absorbed organ dose from biodistribution data (MIRD scheme, RADAR mouse phantom); assay type: in vivo
Method: Data obtained during the in vivo biodistribution studies were used to calculate the absorbed dose for each organ according to the MIRD-scheme. The time integrated activity concentration coefficients were determined by fitting exponential curves to the activity concentration data points at 1, 4, 24, 48, 96, and 168 h p.i. and integrating these curves over time. The least squares fitting analysis was performed with GraphPad Prism software. The S-values for lutetium-177 were based on the 24 g realistic RADAR mouse phantom. The standard organ weights of this model were used to convert from activity concentration to activity. With this model, the absorbed dose in most organs could be calculated. S-values for organs not included in the mouse model, such as adrenal glands and prostate, were determined with the spherical node model within the Olinda/EXM code.
The absorbed doses determined from the biodistribution assay were extrapolated to the dose the animals received during the radiotoxicity study. Here, the animals received 3 consecutive injections with a 7-day interval.

[2] = female, 3× 120 MBq/1200 pmol, extrapolated cumulative
[3] = male, 3× 40 MBq/400 pmol, extrapolated cumulative
[4] = male, 3× 80 MBq/800 pmol, extrapolated cumulative
[5] = male, 3× 120 MBq/1200 pmol, extrapolated cumulative

## CC(C)CC(CC(C)C)NC(=O)[C@H](Cc1cnc[nH]1)NC(=O)CNC(=O)[C@@H](NC(=O)[C@H](C)NC(=O)[C@H](Cc1c[nH]c2ccccc12)NC(=O)[C@H](CCC(N)=O)NC(=O)[C@@H](Cc1ccccc1)NC(=O)COCC(=O)Nc1ccc(CNC(=O)CN2CCN(CC(=O)O)CCN(CC(=O)O)CCN(CC(=O)O)CC2)cc1)C(C)C [[^177Lu]Lu-NeoB, metal not drawn]
pancreas
  Pancreatic alterations: no pancreatic alterations
[1]; female, 1× 120 MBq/1200 pmol
  Absorbed dose adrenal glands: 0.82 Gy
  Absorbed dose brain: 0.12 Gy
  Absorbed dose colon wall: 1.81 Gy
  Absorbed dose heart wall: 0.42 Gy
  Absorbed dose kidneys: 5.24 Gy
  Absorbed dose liver: 4.37 Gy
  Absorbed dose lungs: 0.62 Gy
  Absorbed dose mammary fat pad: 1.11 Gy
  Absorbed dose osteogenic cells: 0.07 Gy
  Absorbed dose ovaries: 0.53 Gy
  Absorbed dose pancreas: 3.30 Gy
  Absorbed dose small intestine: 1.80 Gy
  Absorbed dose spleen: 0.68 Gy
  Absorbed dose stomach wall: 1.31 Gy
  Absorbed dose total body: 0.65 Gy
  Absorbed dose urinary bladder: 0.05 Gy
[1]; [2]
  Absorbed dose adrenal glands: 2.47 Gy
  Absorbed dose brain: 0.35 Gy
  Absorbed dose colon wall: 5.43 Gy
  Absorbed dose heart wall: 1.27 Gy
  Absorbed dose kidneys: 15.71 Gy
  Absorbed dose liver: 13.11 Gy
  Absorbed dose lungs: 1.87 Gy
  Absorbed dose mammary fat pad: 3.34 Gy
  Absorbed dose osteogenic cells: 0.21 Gy
  Absorbed dose ovaries: 1.60 Gy
  Absorbed dose pancreas: 9.89 Gy
  Absorbed dose small intestine: 5.40 Gy
  Absorbed dose spleen: 2.05 Gy
  Absorbed dose stomach wall: 3.94 Gy
  Absorbed dose total body: 1.95 Gy
  Absorbed dose urinary bladder: 0.15 Gy
[1]; male, 1× 40 MBq/400 pmol
  Absorbed dose adrenal glands: 0.58 Gy
  Absorbed dose brain: 0.05 Gy
  Absorbed dose colon wall: 0.81 Gy
  Absorbed dose heart wall: 0.25 Gy
  Absorbed dose kidneys: 2.00 Gy
  Absorbed dose liver: 2.11 Gy
  Absorbed dose lungs: 0.35 Gy
  Absorbed dose mammary fat pad: 0.27 Gy
  Absorbed dose osteogenic cells: 0.03 Gy
  Absorbed dose pancreas: 2.23 Gy
  Absorbed dose prostate gland: 0.35 Gy
  Absorbed dose small intestine: 0.80 Gy
  Absorbed dose spleen: 0.50 Gy
  Absorbed dose stomach wall: 1.50 Gy
  Absorbed dose testes: 0.02 Gy
  Absorbed dose total body: 0.31 Gy
  Absorbed dose urinary bladder: 0.02 Gy
[1]; male, 1× 80 MBq/800 pmol
  Absorbed dose adrenal glands: 0.54 Gy
  Absorbed dose brain: 0.12 Gy
  Absorbed dose colon wall: 1.21 Gy
  Absorbed dose heart wall: 0.46 Gy
  Absorbed dose kidneys: 3.25 Gy
  Absorbed dose liver: 3.28 Gy
  Absorbed dose lungs: 0.87 Gy
  Absorbed dose mammary fat pad: 0.23 Gy
  Absorbed dose osteogenic cells: 0.06 Gy
  Absorbed dose pancreas: 2.31 Gy
  Absorbed dose prostate gland: 0.68 Gy
  Absorbed dose small intestine: 1.21 Gy
  Absorbed dose spleen: 0.72 Gy
  Absorbed dose stomach wall: 1.50 Gy
  Absorbed dose testes: 0.04 Gy
  Absorbed dose total body: 0.47 Gy
  Absorbed dose urinary bladder: 0.04 Gy
[1]; male, 1× 120 MBq/1200 pmol
  Absorbed dose adrenal glands: 0.66 Gy
  Absorbed dose brain: 0.15 Gy
  Absorbed dose colon wall: 0.93 Gy
  Absorbed dose heart wall: 0.68 Gy
  Absorbed dose kidneys: 3.21 Gy
  Absorbed dose liver: 5.61 Gy
  Absorbed dose lungs: 3.91 Gy
  Absorbed dose mammary fat pad: 0.49 Gy
  Absorbed dose osteogenic cells: 0.12 Gy
  Absorbed dose pancreas: 1.54 Gy
  Absorbed dose prostate gland: 0.37 Gy
  Absorbed dose small intestine: 0.94 Gy
  Absorbed dose spleen: 1.35 Gy
  Absorbed dose stomach wall: 1.38 Gy
  Absorbed dose testes: 0.08 Gy
  Absorbed dose total body: 0.66 Gy
  Absorbed dose urinary bladder: 0.08 Gy
[1]; [3]
  Absorbed dose adrenal glands: 1.74 Gy
  Absorbed dose brain: 0.15 Gy
  Absorbed dose colon wall: 2.43 Gy
  Absorbed dose heart wall: 0.75 Gy
  Absorbed dose kidneys: 6.00 Gy
  Absorbed dose liver: 6.33 Gy
  Absorbed dose lungs: 1.05 Gy
  Absorbed dose mammary fat pad: 0.81 Gy
  Absorbed dose osteogenic cells: 0.09 Gy
  Absorbed dose pancreas: 6.69 Gy
  Absorbed dose prostate gland: 1.05 Gy
  Absorbed dose small intestine: 2.40 Gy
  Absorbed dose spleen: 1.50 Gy
  Absorbed dose stomach wall: 4.50 Gy
  Absorbed dose testes: 0.06 Gy
  Absorbed dose total body: 0.93 Gy
  Absorbed dose urinary bladder: 0.06 Gy
[1]; [4]
  Absorbed dose adrenal glands: 1.62 Gy
  Absorbed dose brain: 0.36 Gy
  Absorbed dose colon wall: 3.63 Gy
  Absorbed dose heart wall: 1.38 Gy
  Absorbed dose kidneys: 9.75 Gy
  Absorbed dose liver: 9.84 Gy
  Absorbed dose lungs: 2.61 Gy
  Absorbed dose mammary fat pad: 0.69 Gy
  Absorbed dose osteogenic cells: 0.18 Gy
  Absorbed dose pancreas: 6.93 Gy
  Absorbed dose prostate gland: 2.04 Gy
  Absorbed dose small intestine: 3.63 Gy
  Absorbed dose spleen: 2.16 Gy
  Absorbed dose stomach wall: 4.50 Gy
  Absorbed dose testes: 0.12 Gy
  Absorbed dose total body: 1.41 Gy
  Absorbed dose urinary bladder: 0.12 Gy
[1]; [5]
  Absorbed dose adrenal glands: 1.99 Gy
  Absorbed dose brain: 0.44 Gy
  Absorbed dose colon wall: 2.80 Gy
  Absorbed dose heart wall: 2.03 Gy
  Absorbed dose kidneys: 9.62 Gy
  Absorbed dose liver: 16.84 Gy
  Absorbed dose lungs: 11.72 Gy
  Absorbed dose mammary fat pad: 1.47 Gy
  Absorbed dose osteogenic cells: 0.37 Gy
  Absorbed dose pancreas: 4.61 Gy
  Absorbed dose prostate gland: 1.10 Gy
  Absorbed dose small intestine: 2.81 Gy
  Absorbed dose spleen: 4.05 Gy
  Absorbed dose stomach wall: 4.14 Gy
  Absorbed dose testes: 0.23 Gy
  Absorbed dose total body: 1.97 Gy
  Absorbed dose urinary bladder: 0.24 Gy
